{"source": "the DeepSol protein solubility set", "data": [{"assay": "soluble on expression in E. coli; label from the status in PepcDB or PDB records", "values": [{"sequence": "MAHHHHHHMTAHHALLLGSLVDDVDLSVRRGAQADTLTVDGAADRLLSAIASYTKSAAATDVDVEDNGEAAQETAALSLMAHMQRLSLLCNAARTPETSCTSAGEDNIHKCVDDWAKWLLGLESKPIVLASKVALCLPPLQACWRGGSALDGAGSAHIDRIEEAIGSFFAHAARRCVTEWTTHGAPLRTLLPPLALLTTYARFRWAWSRFTELRHVGGGEHLGEAEGGIAVVGSSDTVQRQENRDIDFLGIAGEVESCHAAKLTREVLLHSLKTIDWRVGSAVPAVKEVAPLFWCVFLRCRSYALHSCSQCRSSSSDFFAHEASARLVAQVLRCTVDGVRLCIERQAADMHVARARQLCTCDIPCLVLLTRLWFSWIALATDAAAVLLPRLERSLRQLVSSVVKLRGGAETKPPPSSVAAALAENSAEASWTEQETLFVEVAWKVAPLSMSEIASATAAVPWTSEFVRASEVQAVLEKRTLVAPVP", "soluble on expression in E. coli": "not soluble"}, {"sequence": "DAMNVMPVLAEIRERKAAHRAGMPSHVINFTLLPMNAVDMAHLQATLGNGPIQLHSRGYGSCRVLATATRDVWSVQFLNAMDTMILDTLEIGDVPAAACAADEDFSDSAERLGEIIEAYFE", "soluble on expression in E. coli": "not soluble"}, {"sequence": "FSGSEATAAILSRAPWSLQSVNPGLKTNSSKEPKFTKCRSPERETFSCHWTDEVHHGTKNLGPIQLFYTRRNTQEWTQEWKECPDYVSAGENSCYFNSSFTSIWIPYCIKLTSNGGTVDEKCFSVDEIVQPDPPIALNWTLLNVSLTGIHADIQVRWEAPRNADIQKGWMVLEYELQYKEVNETKWKMMDPILTTSVPVYSLKVDKEYEVRVRSKQRNSGNYGEFSEVLYVTLPQMSQ", "soluble on expression in E. coli": "soluble"}, {"sequence": "MSFVNVDPFGMLAAAATLESLGSHMAVSNAAVASVTTKVPPPAADYVSKKLSLFFSSHGQQYQVQAARGTAFHRKLVRTLANGALAYEEVEIANNEGF", "soluble on expression in E. coli": "not soluble"}, {"sequence": "MGSDKIHHHHHHMSTAVTFFGQHVLNRVSFLRCSKEFIKKSLNHDSTVFIPFIEGEALISPENGDLVQLSNSVKSYKNILSAIVPLYTTLLNTTRSRSDESGINVTFLGLLEGTDSAFNFEWSNISYKGTPYFGLDIRVTESTLFKKVDFEPIFSYPKVTRDHIFKQTNEDASLYSQGKMYLDWLAKYKFCPGCGSPLFPVEAGTKLQCSNENRNVYCNVRDARINNVCFPRTDPTVIIALTNSDYSKCCLARSKKRYGDFVLYSTIAGFMEPSETIEEACIREIWEETGISCKNIDIVRSQPWPYPCSLMIGCLGIVQFNSKNEVINLNHDDELLDAQWFDTTEIIQALDKYAGGYRVPFKNDINLPGSTTIAFQLINHVCENYKNLRKTSSSHL", "soluble on expression in E. coli": "not soluble"}, {"sequence": "MGSDKIHHHHHHMLLVENFDLRATMEQPTSFDEMWGTSGSLREPYREFHDWFGSEDPARLRKKQRDADKLFRLTGITFNVYGKAEAEERLIPFDIIPRIISGSEWARLSRGIEQRVRAINAFLYDIYHKQEIVKAGRIPKEMISRNDAFLPHMIGVEPPGGVYTHIVGIDLVRTGPGEFYVLEDNARTPSGVSYMLENRETMLQMFPELFSQNRVQPVSNYPTDLRRSLAASAPQSCTGKPVVAVLTPGIYNSAYFEHAFLADKMGVELVEGQDLRVIDGRVAMRTTRGYKPIDVLYRRVDDEFLDPLNFNPESALGVPGIMDVYRAGNITIANAPGTGIADDKAIYSYMPEIVEFYTGERPLLQNVQTWRCSEPDALAYVLDNLEDLVVKEVHGSGGYGMLIGPTASKKDLAAFRRKLKARPGNYIAQPTLALSTVPIFSRAGLSPRHVDLRPFVLCSPNKVHITPGGLTRVALKKGSLVVNSSQGGGTKDTWVLED", "soluble on expression in E. coli": "not soluble"}, {"sequence": "MGSSHHHHHHSSGLVPRGSHMIRYSEVTPYHVTSVWTKGVTPPANFTQGEDVFHAPYVANQGWYDITKTFNGKDDLLSGAATAGNMLHWWFDQNKDQIKRYLEEHPEKQKINFNGEQMFDVKEAIDTKNHQLDSKLFEYFKEKAFPYLSTKHLGVFPDHVIDMFINGYRLSLTNHGPTPVKEGSKDPRGGIFDAVFTRGDQSKLLTSRHDFKEKNLKEISDLIKKELTEGKALGLSHTYANVRINHVINLWGADFDSNGNLKAIYVTDSDSNASIGMKKYFVGVNSAGKVAISAKEIKEDNIGAQVLGLFTLSTGQDSWNQTN", "soluble on expression in E. coli": "soluble"}, {"sequence": "LKLKDRVKLFLTPQNALFEVLQKYSEDFLNGEEVVKDNFKIDTAAAMSFSAVFACNRVLSETLASCPIMLYEKDDKGNRRQVTDTAEYGVLHYAPNAEMTPVQFKEFGMTNINLGGNFIAQKVFNMHGELLELRPIAWDRVRIDIDKSTGRLLYYIDGKQEPKTRDEIFHIPGLTLDGYIGITPLSYAALTIDIGLSQDTFERNFYHNRASTSGIFQYPNELSDEAFQRLKKDIKKNYTGLSNAGVPMILEGGGQFKEITMKLTDAQFLESKRFRIEDVCRIFRVPLHLVQDLTRSTNNNIEHQSLEFIVYTMLPWFKKWEENLNLQLLSKESRRKNRYFEFNISGLLRGDIKSRYEAYAQGRQWGWLSVNDIRRLENMNPIDNGDRYLEPLNMSEAGKQEEQLKALREEIFNMINERK", "soluble on expression in E. coli": "soluble"}, {"sequence": "MRANLGVPSTIAQSRWAESATSFPTATVAAAGGKDIEIERDVAHNQPGGIFPNVIFLESLDFSACFVDAHQVFVSDGSVMFRRWDRQKKTGRKK", "soluble on expression in E. coli": "not soluble"}, {"sequence": "MEPNNLKEELVSVFEKACSSHKERLDFICSVRESDTFSNVDVPLAPIKTIIEIAKNEENQTEILKLAIENIKTLSTVGSGQYIASHFSTHNEVAIIFCISYFLYHFNFLHDENKKQLLKRAFEAVAEKIADYLNEN", "soluble on expression in E. coli": "soluble"}, {"sequence": "MCLIVFAWQPGHALPLLVAANRDEFYARPSLPLAAWEDAEGVFAGRDLEAGGTWLGLGPAGRFAALTNVRDPSQALGKRSRGELVADFLRGGGNPADYLAQVAGRAADYSGFNLLIGDRHQLWHYNPRVGPPRLLPAGIYGLSNAALDTPWPKLLKARAALAERLAEPHPQALLELLADAAPAADGQLPDTGVGLATERLLSSVFIASPSYGTRASSVVRVHADGTREMIERSFGPSGARLGEVSLVLPPGLEHHHHHH", "soluble on expression in E. coli": "not soluble"}, {"sequence": "MKEIKIGLIGFGTIGTGVAKLLQANAGLIADKVGAMVTLKKIADLDVTTDRGIELPPGTLTSNVADVLDDPEISVVIELIGGYEPAKSFVLRAINNGKHVVTANKALLALHGEEIYPAAAAKGVQVLFEAAVGGGIPVISAILGNMAANNFTTVLGILNGTCNYILTRMTQEGADFGDVLKTAQELGYAEADPTFDIEGVDTAHKLALLVSLCFGTKVDFNAIHTEGISSISSADIGFARDFGYKIKLLAIGKRTGDTVEARVHPTMIPVNYPLADVDGVFNAIRFTGDFIGPVMFYGRGAGMDPTASAVVGDVIEIARNIIAGVSRRCAPLGYRDEAVTTLALKPMGEIEGKYYLRFSAVDKPGVLAKISGALGKYDISIESMIQKGRSAGESVPIVIMTHEAREKDIRAALEEIDTFELISEKSRFIRIEDNLE", "soluble on expression in E. coli": "not soluble"}, {"sequence": "MAQFLEKATSALSEAKESVTSTAESVTASLTDAEKTVNQTARSTLTDAETTVAASVETVKTEAAAAPDKASGVSTQAKDAVDKAFSRGIEGAKSLLQTFEAKSSDISSKLVGGVTNLVSGASSSTVANRDLPVSTDNQPLLASGEKTPWWKNCCGVLDLFKKDT", "soluble on expression in E. coli": "soluble"}, {"sequence": "MITDEHIELFLAQAHRYGDAKLMLCSSGNLSWRIGEEALISGTGSWVPTLAKEKVSICNIASGTPTNGVKPSMESTFHLGVLRERPDVNVVLHFQSEYATAISCMKNKPTNFNVTAEIPCHVGSEIPVIPYYRPGSPELAKAVVEAMLKHNSVLLTNHGQVVCGKDFDQVYERATFFEMACRIIVQSGGDYSVLTPEEIEDLEIYVLGKKTK", "soluble on expression in E. coli": "soluble"}, {"sequence": "MGSDKIHHHHHHMLERYQGEDGRRLRVEAALDSKLAKGNQALAEAIADVATLRQFKAGQALIEQGGDDNQVYILISGSCDVIVNAKVVNRRGPGDHVGEMAAIQPAQRRSATIMATEQVLAFELPEPVFANLAATYPDIYRLIAKDLARRLLQRNAVTGTPRKRIRVFVISSVEALPIARAIQTAFEYDPFTVIVWTDGVFKVANYTLQSLEDEIDNSDFAIAIAHPDDKVESRQAQWPQPRDNVIFELGLFMGRLGRARAILMEPRDEKVKLPSDLAGVTTIGYRFDPDGDTQAALAPACNRLRNHIVELGLAVG", "soluble on expression in E. coli": "not soluble"}, {"sequence": "MGSDKIHHHHHHMKKLVENLLSWCKKSMKMRRCVGKSTAPVTGQSVGQTGNAEGVLPSTATETVDEIVLPAAVETAGMVETIDEKAAFGKSGRKKPENMLDALQRFLTIRYDFRYNLLTEQTEYRGKEMPDEEYAMVAQRDLNTFCLEARTGGINCWDKDVSRLLHSRKVENYHPFLHYMSHLPQWDGVDRVTPLAVRISRKPMWVKGFHRWMLGVAAQWLGQAQDCANAVAPMLVSREQGKRKSSFCKILMPKELTPYYIDKFDLTSESGCEQKLSLFGLINMDEFDKYRAGQMPALKNLMQTTTLTFRRAHRPAFSHLPRIASFIGTSNMTDLLTDPTGSRRFLCAEVDGKIDCTPPDHAQLFAQLKAELAGGERYWFSEEEEKEIQHSNRNFYKMPAEQELFLRCFRMPQEGELSKPYTTTDLFNYLQKHYPAAMRGVTPNRLGRMMVALGIQRVHTEYGNVYRLVKLKDSSAA", "soluble on expression in E. coli": "not soluble"}, {"sequence": "MPICTRLTAQIVKVAVNQPVAIRSSMWAKNNQNIHFMNLHVKKLEKLLLF", "soluble on expression in E. coli": "not soluble"}, {"sequence": "MSQGYAIELYFDPALENQVLKAWNVFARRQISTYLINNESRPHITLFSTTSSIDSTKLEPIIKSFSSKQEPISLSFSSIGSFSSDDNALFLSPTPSLSLIQLQLQLCEVIKKEGFEIGEEYRVDSWVPFCSVAVDVPKSRISEGFLVLRDLKLLVYGYAMDIGLVEFSPVREVFSFGLGNNLES", "soluble on expression in E. coli": "soluble"}, {"sequence": "MSLDRVEVLGVEFVEFTADQTEAEALGSLLGAMGFRAVASHREKAVTLWRQGCDHRGINVVINTEQKGFAHSSYLVHGASAYAIGLKVPDASAAVERARALGAEIFLPESGEGEGAMAAIRGMGGGLIYFVDEIDDVWSREFVAPGDDRQPAATLVAIDHVAQSMKEEQLPSWLLFYTSILDADKLAQVDIVDPAGLVRSQVVENASGTLRLTLNGADNHRTLAGHFIAESFGSGVQHVAFRTDDIFEAAEHMRRSGFRALAISRNYYDDIEVRFALEPGFVDRLRDENILYDRDEDGEYFQIYGPTFGEGFFFEIVERRSGYRGYGAANAPFRIAAQKRCLRPAGMPAEGSSRVDLQVCRPKKGIITITTDPNSSSVDKLAAALEHHHHHH", "soluble on expression in E. coli": "soluble"}, {"sequence": "MKLQKQLLEAVEHKQLRPLDVQFALTVAGDEHPAVTLAAALLSHDAGEGHVCLPLSRLENNEASNPLLATCVSEIGELQNWEECLLASQAVSRGDEPTPMILCGDRLYLNRMWCNERTVARFFNEVNHTIEVDEALLAQTLDKLFPVSDEINWQKVAAAVALTRRISVISGGPGTGKTTTVAKLLAALIQMADGERCRIRLAAPTGKAAARLTESLGKALRQLPLTDEQKKRIPEDASTLHRLLGAQPGSQRLRHHAGNPLHLDVLVVDEASMIDLPMMSRLIDALPDHARVIFLGDRDQLASVEAGAVLGDICAYANAGFTAERARQLSRLTGTHVPAGTGTEAASLRDSLCLLQKSYRFGSDSGIGQLAAAINRGDKTAVKTVFQQDFTDIEKRLLQSGEDYIAMLEEALAGYGRYLDLLQARAEPDLIIQAFNEYQLLCALREGPFGVAGLNERIEQFMQQKRKIHRHPHSRWYEGRPVMIARNDSALGLFNGDIGIALDRGQGTRVWFAMPDGNIKSVQPSRLPEHETTWAMTVHKSQGSEFDHAALILPSQRTPVVTRELVYTAVTRARRRLSLYADERILSAAIATRTERRSGLAALFSSRE", "soluble on expression in E. coli": "not soluble"}]}]}
